Molecular target: T1, full-length NPRA (Homo sapiens, UniProt P16066)
T1 sequence (P16066 33-1061): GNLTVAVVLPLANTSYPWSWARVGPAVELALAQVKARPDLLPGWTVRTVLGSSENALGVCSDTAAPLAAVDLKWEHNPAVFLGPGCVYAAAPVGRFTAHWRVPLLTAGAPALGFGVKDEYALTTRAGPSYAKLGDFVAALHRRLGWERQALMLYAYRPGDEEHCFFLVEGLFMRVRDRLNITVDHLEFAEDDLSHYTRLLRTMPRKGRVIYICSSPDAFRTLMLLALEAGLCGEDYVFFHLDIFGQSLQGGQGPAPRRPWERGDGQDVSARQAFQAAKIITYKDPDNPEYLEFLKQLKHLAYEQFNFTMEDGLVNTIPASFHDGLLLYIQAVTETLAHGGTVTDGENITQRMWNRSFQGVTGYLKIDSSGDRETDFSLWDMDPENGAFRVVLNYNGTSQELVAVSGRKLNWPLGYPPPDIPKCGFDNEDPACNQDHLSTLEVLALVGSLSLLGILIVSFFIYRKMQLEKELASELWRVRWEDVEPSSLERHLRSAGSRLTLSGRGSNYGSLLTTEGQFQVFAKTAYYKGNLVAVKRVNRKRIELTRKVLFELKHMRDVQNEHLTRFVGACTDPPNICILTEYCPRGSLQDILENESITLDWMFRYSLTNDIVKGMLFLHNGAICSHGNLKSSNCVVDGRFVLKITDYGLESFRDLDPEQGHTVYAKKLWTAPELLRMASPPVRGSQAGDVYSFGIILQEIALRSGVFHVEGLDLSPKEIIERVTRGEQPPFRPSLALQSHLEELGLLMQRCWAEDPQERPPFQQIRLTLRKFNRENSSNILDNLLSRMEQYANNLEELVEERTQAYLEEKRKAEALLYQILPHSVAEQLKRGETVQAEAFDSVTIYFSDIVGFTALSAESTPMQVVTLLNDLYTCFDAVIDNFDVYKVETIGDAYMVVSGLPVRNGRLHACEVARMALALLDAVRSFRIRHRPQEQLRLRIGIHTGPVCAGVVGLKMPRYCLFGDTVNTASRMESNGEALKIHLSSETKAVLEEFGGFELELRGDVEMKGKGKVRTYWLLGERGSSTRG
Assay: Association of NPRA fragment with full-length NPRA
Assay type: binding
Conditions: in the presence or absence of activated PKG

sNRF^(806-900): intracellular NPRA fragment, residues 806-900, excludes the cyclase-containing domain; shortest fragment observed to associate with PKG
association with full-length NPRA: failed to associate with full-length NPRA

Reference: patent US7943296B2, “Methods of screening using a natriuretic peptide receptor” (Oregon Health & Science University, priority 2005, dated 2011)
